Source: PMC4374775, “New Insights on the Mechanism of the K^+-Independent Activity of Crenarchaeota Pyruvate Kinases” (PLoS ONE, 2015)
Read-outs that look alike come from different tables or passages of the source.

Assays:
[1] = target: Thermofilum pendens pyruvate kinase (Thermofilum pendens); test: native gel or EMSA; BN-PAGE, overnight at 4°C, 150 μg of TpPK; RMPK as molecular weight marker; native band of approximately 200 kDa
[2] = target: T1, Thermofilum pendens pyruvate kinase (TpPK) (Thermofilum pendens, UniProt A1RX09); test: dead-end inhibition kinetics, LDH/NADH-coupled assay, […]°C, pH […]; type: biochemical
T1 construct: gene Tpen_0330; full-length with N-terminal His6 tag and TEV site (23 additional residues); homotetramer

purified protein = substrate: C=C(OP(=O)(O)O)C(=O)O; test: purified protein; conditions: Mg2+ active site; random-order binding with ADP-Mg
[3] = substrate: Nc1ncnc2c1ncn2[C@@H]1O[C@H](COP(=O)(O)OP(=O)(O)O)[C@@H](O)[C@H]1O; test: initial velocity kinetics (Km), LDH/NADH-coupled assay; type: biochemical, Thermofilum pendens; conditions: Mg2+ active site; random-order binding with PEP

“Thermofilum pendens pyruvate kinase (enzyme)” was tested, and the stoichiometry N [1] was 4.

Molecule `Nc1ncnc2c1ncn2[C@@H]1O[C@H](COP(=O)(O)O)[C@@H](O)[C@H]1O` [AMP] has a Ki ([2]; read-out: K i (AMP)) of 35 ± 1.2 mM.

With `O=C(O)C(=O)O` [oxalate] the Ki ([2]; read-out: K i (oxalate)) was 0.05 ± 0.002 mM.

B1: Thermofilum pendens pyruvate kinase (TpPK) (Thermofilum pendens Hrk 5) (protein)
chain: MAKVKLVATLGPSSWSEETMKRMVAEGVNAFRLNFSHVDYARFEELAKQVRRLETPLRPLTLIADLQGPVIRLGEFAPFQVRPGDRVTFTLSSKTEEKYAVPVPNGVFFEIVREGDEVLVEGGRLAFRIVDAGPEKAVGEALLEGEVKPRKTVTVRGKDIPLPTITEKDLRDIEFSVKAGFDAIALSFVRSSSDVQRLRDILFDYGAEDVKIIAKIETKSAVEDLDSILQKSDAALVARGDLANFYGLEEIYSIQRYIISRARRFGKPSIVATQLLESMISNPLPTRSEVVDVITAVRMGADALLLAGETAAGKYPVESVYWLRRIVEEAEREPLEVEDVAPDKSDLYESIAKGVVSLAEVISGKIIAFSEKGNTARRISKFRPKAGLIVFTNDPATARYVNMIYGVRVVYDPSLSKADQNLFSKMLSKALEHNLVNLGDLVVFTSGRRRGSTDLVSVERVKSE
notes: full-length with N-terminal His6 tag and TEV site (23 additional residues); homotetramer
With B1 the Km (purified protein) was 380 ± 30 µM and the Km [3] was 160 ± 10 µM.
